Results reported in US20200399712A1, “COMPOSITIONS AND METHODS FOR THE DIAGNOSIS AND DETECTION OF TUMORS AND CANCER PROGNOSIS” (priority 2018, published 2020).
“Also recorded” adds a separate entry of the source.

Experiments:
HPV-16 genome = assay: qPCR sensitivity against HPV-16 copy number (known-copy HPV-16 DNA among 10 ng normal human DNA)
From the text: (§1) All samples were run in triplicates.
To seek the most promising primer-probe set in the viewpoint of sensitivity, Applicants evaluated the sensitivity analysis for these candidate primer-probe sets. […] Therefore, the sensitivity of E6 (FIG. 3A) and E7 (FIG. 3B) was also 30 copies. […] The candidate primer-probe sets were the “Min-4” (FIG. 3C), “Min-5” (FIG. 3D), “Min-6” (FIG. 3E), “Max-10” (FIG. 3F), “E6-11” (FIG. 3G), “E6-13” (FIG. 3H), respectively.
In addition, Applicants performed sensitivity analysis to identify the most sensitive primer/probe set from among the candidate sets.
To validate the function of primer/probe sets, Applicants calculated the slope of delta Rn against cycle threshold for HPV-16 copy number detection from defined HPV copy number DNA derived from CaSki cell line.

HPV-16 [1] = assay: qPCR on 20 ng DNA from saliva samples of HPV-HNSCC patients; settings: 28 HPV-HNSCC saliva samples
Experimental: as §1
The sensitivity of detection from saliva 20 ng DNA samples is 32.1% (9/28) in E6 primer-probe sets, 42.9% (12/28) in E7 primer-probe sets, 35.7% (10/28) in “Min-5” primer-probe sets, 46.4% (13/28) in “Max-10” primer-probe sets. The sensitivity of combination of “5” and “10” is 50% (14/28) and that of E6 and E7 is 42.9% (12/28). By the standard curve analysis, the copy numbers that detected by “Max-10” primer-probe sets were the highest in these 4 primer-probe sets. The slope of standard curve is −3.5 in “Min-5” primer-probe sets when delta Rn is plotted against cycle threshold (FIG. 5).

HPV-16 [2] = assay: qPCR sensitivity against HPV-HNSCC tumor samples diluted among 10 ng normal human DNA
Experimental: Quantitative real-time polymerase chain reaction (qRT-PCR) was used to examine the threshold in each experiment. qRT-PCR was performed using Quant Studio 6 Flex Real-Time PCR System (Thermo Fisher Scientific). All samples were run in triplicates. HPV-16 viral amplicon copy number estimations were developed using the CaSki cell line. After amplification of the amplicon by PCR, DNA concentration was calculated by weight NanoDrop®, then converted to DNA copy number by calculation based on the molecular weight of the double stranded amplicon. […] In the other 32 HPV-HNSCC cohort, Applicants diluted the tumor sample to 990 pg, 198 pg, 99 pg, 39.6 pg, 7.9 pg, 3.2 pg, and 1.6 pg of amount tumor weight, (correspond to 150, 30, 15, 6, 1.2, 0.6, and 0.3 cells: assumption that 1 tumor cell have 6.6 pg DNA (=3*10^9 (human DNA genome bp)*2 (diploid)*1.67*10^(−24) g (weight/Dalton))) combined with 10 ng normal leukocyte human DNA and compare the threshold of each primer-probe sets.
In this regard, Applicants investigated the other 32 HPV-HNSCC tumor samples. From the assumption that 1 cell tumor DNA contain 6.6 pg DNA, Applicants made the dilution series by DNA derived from normal lymphocyte as described and decide the threshold for each primer-probe set.
Furthermore, to determine whether these designed primer/probe sets also have a high sensitivity in a separate cohort, Applicants performed PCR in a validation cohort of 32 additional primary tumor samples with validated presence of HPV-16. Applicants prepared serial of dilutions of tumor DNA in normal lymphocyte DNA from non-cancer individuals and determined the threshold for each primer/probe set and defined amplification thresholds expressed in number of tumor cells for each sample (Table 5).

[3] = among 10 ng normal DNA, triplicate qPCR
[4] = samples tested 3 times, 10 ng DNA from healthy individual
[5] = tumor DNA dilution, fraction of 32 samples

B1: E6: previously designed (historical) HPV-16 E6 primers and Taqman probe, SEQ ID NO: 7-9, positive control (nucleic acid)
DNA 1: TCAGGACCCACAGGAGCG
DNA 2: CCTCACGTCGCAGTAACTGTTG
DNA 3: CCCAGAAAGTTACCACAGTTATGCACAGAGCT
modifications: Taqman probe, labels not given here
sensitivity (HPV-16 copies) (HPV-16 genome; HPV-16 genome among normal 10 ng DNA samples, consistent triplicate reaction): 30 copies
reaction under 10 copies of HPV-16 genome (HPV-16 genome; [3]): reacted inconsistently
reaction under 30 copies of HPV-16 genome (HPV-16 genome; [3]): reacted consistently triplicate; also recorded: reacted consistently in triplicates
number of reactions against 10 HPV-16 copies (HPV-16 genome; [4]): one
number of reactions under 30 HPV-16 copies (HPV-16 genome; [4]): 3 reactions
sensitivity of detection from saliva 20 ng DNA samples (HPV-16 [1]): 32.1%
sensitivity under 100 cells (HPV-16 [2]; 32 HPV-HNSCC tumor samples): 90.6%
sensitivity under single cells (HPV-16 [2]; 32 HPV-HNSCC tumor samples, 6.6 pg DNA): 12.5%
sensitivity under 10 cells (HPV-16 [2]; 32 HPV-HNSCC tumor samples, 66 pg DNA): 53.1%
Threshold of tumor cell numbers for HPV-16 detection (HPV-16 [2]; Sample # 1): 150.0 tumor cells
Threshold of tumor cell numbers for HPV-16 detection (HPV-16 [2]; Sample # 2): 30.0 tumor cells
Threshold of tumor cell numbers for HPV-16 detection (HPV-16 [2]; Sample # 3): 6.0 tumor cells
Threshold of tumor cell numbers for HPV-16 detection (HPV-16 [2]; Sample # 4): 150.0 tumor cells
Threshold of tumor cell numbers for HPV-16 detection (HPV-16 [2]; Sample # 5): 30.0 tumor cells
Threshold of tumor cell numbers for HPV-16 detection (HPV-16 [2]; Sample # 6): 150.0 tumor cells
Threshold of tumor cell numbers for HPV-16 detection (HPV-16 [2]; Sample # 7): 30.0 tumor cells
Threshold of tumor cell numbers for HPV-16 detection (HPV-16 [2]; Sample # 8): 15.0 tumor cells
Threshold of tumor cell numbers for HPV-16 detection (HPV-16 [2]; Sample # 9): 60.0 tumor cells
Threshold of tumor cell numbers for HPV-16 detection (HPV-16 [2]; Sample # 10): 30.0 tumor cells
Threshold of tumor cell numbers for HPV-16 detection (HPV-16 [2]; Sample # 11): 60.0 tumor cells
Threshold of tumor cell numbers for HPV-16 detection (HPV-16 [2]; Sample # 12): 15.0 tumor cells
Threshold of tumor cell numbers for HPV-16 detection (HPV-16 [2]; Sample # 13): 6.0 tumor cells
Threshold of tumor cell numbers for HPV-16 detection (HPV-16 [2]; Sample # 14): 6.0 tumor cells
Threshold of tumor cell numbers for HPV-16 detection (HPV-16 [2]; Sample # 15): 6.0 tumor cells
Threshold of tumor cell numbers for HPV-16 detection (HPV-16 [2]; Sample # 16): 6.0 tumor cells
Threshold of tumor cell numbers for HPV-16 detection (HPV-16 [2]; Sample # 17): 30.0 tumor cells
Threshold of tumor cell numbers for HPV-16 detection (HPV-16 [2]; Sample # 18): 6.0 tumor cells
Threshold of tumor cell numbers for HPV-16 detection (HPV-16 [2]; Sample # 19): 1.2 tumor cells
Threshold of tumor cell numbers for HPV-16 detection (HPV-16 [2]; Sample # 20): 0.5 tumor cells
Threshold of tumor cell numbers for HPV-16 detection (HPV-16 [2]; Sample # 21): 1.2 tumor cells
Threshold of tumor cell numbers for HPV-16 detection (HPV-16 [2]; Sample # 22): 0.3 tumor cells
Threshold of tumor cell numbers for HPV-16 detection (HPV-16 [2]; Sample # 23): 1.2 tumor cells
Threshold of tumor cell numbers for HPV-16 detection (HPV-16 [2]; Sample # 24): 1.2 tumor cells
Threshold of tumor cell numbers for HPV-16 detection (HPV-16 [2]; Sample # 25): 0.3 tumor cells
Threshold of tumor cell numbers for HPV-16 detection (HPV-16 [2]; Sample # 26): 0.6 tumor cells
Threshold of tumor cell numbers for HPV-16 detection (HPV-16 [2]; Sample # 27): 15.0 tumor cells
Threshold of tumor cell numbers for HPV-16 detection (HPV-16 [2]; Sample # 28): 3.0 tumor cells
Threshold of tumor cell numbers for HPV-16 detection (HPV-16 [2]; Sample # 29): 3.0 tumor cells
Threshold of tumor cell numbers for HPV-16 detection (HPV-16 [2]; Sample # 30): 15.0 tumor cells
Threshold of tumor cell numbers for HPV-16 detection (HPV-16 [2]; Sample # 31): 3.0 tumor cells
Threshold of tumor cell numbers for HPV-16 detection (HPV-16 [2]; Sample # 32): 15.0 tumor cells
Sensitivity, 1 cell (HPV-16 [2]; [5]): 0.125
Sensitivity, 3 cells (HPV-16 [2]; [5]): 0.250
Sensitivity, 10 cells (HPV-16 [2]; [5]): 0.531
Sensitivity, 30 cells (HPV-16 [2]; [5]): 0.844
Sensitivity, 100 cells (HPV-16 [2]; [5]): 0.906
